{
  "source": "patent US20030186334A1",
  "about": "“KTS-disintegrins” (Temple University - Of the Commonwealth System of Higher …, priority 2001, published 2003)",
  "key": {"[1]": {"molecular_target": "human α1β1 integrin (human) (UniProt P56199)", "sequence (P56199 29-1179, chain 1 of 2)": "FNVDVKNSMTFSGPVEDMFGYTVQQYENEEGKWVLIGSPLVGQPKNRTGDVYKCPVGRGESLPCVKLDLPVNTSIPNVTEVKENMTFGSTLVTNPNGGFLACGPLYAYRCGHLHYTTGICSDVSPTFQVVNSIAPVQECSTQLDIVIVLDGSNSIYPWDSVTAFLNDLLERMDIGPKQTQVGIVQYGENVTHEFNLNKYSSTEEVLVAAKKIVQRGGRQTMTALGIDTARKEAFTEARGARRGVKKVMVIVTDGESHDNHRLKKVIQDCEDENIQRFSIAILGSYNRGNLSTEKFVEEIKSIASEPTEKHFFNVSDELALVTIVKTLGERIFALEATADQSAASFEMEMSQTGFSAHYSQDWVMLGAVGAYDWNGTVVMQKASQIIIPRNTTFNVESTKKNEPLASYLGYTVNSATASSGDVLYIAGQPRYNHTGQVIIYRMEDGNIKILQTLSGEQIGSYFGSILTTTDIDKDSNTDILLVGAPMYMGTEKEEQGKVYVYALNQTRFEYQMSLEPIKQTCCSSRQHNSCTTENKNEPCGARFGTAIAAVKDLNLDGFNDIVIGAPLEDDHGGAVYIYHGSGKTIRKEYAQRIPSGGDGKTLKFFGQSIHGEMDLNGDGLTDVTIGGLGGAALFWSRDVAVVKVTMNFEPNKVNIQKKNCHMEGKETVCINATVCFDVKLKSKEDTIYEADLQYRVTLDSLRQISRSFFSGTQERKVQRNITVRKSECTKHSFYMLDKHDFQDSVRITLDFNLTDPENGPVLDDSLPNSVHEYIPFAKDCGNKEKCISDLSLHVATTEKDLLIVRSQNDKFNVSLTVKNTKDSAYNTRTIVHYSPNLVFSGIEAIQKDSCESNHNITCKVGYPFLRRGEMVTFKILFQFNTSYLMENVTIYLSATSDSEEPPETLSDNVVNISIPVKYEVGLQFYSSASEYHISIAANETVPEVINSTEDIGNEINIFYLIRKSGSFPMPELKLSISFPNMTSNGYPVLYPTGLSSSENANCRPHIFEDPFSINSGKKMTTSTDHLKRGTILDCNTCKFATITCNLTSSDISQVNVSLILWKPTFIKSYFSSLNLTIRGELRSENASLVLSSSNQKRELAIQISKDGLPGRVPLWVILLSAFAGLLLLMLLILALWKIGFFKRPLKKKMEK", "sequence (P05556 21-798, chain 2 of 2, further chain)": "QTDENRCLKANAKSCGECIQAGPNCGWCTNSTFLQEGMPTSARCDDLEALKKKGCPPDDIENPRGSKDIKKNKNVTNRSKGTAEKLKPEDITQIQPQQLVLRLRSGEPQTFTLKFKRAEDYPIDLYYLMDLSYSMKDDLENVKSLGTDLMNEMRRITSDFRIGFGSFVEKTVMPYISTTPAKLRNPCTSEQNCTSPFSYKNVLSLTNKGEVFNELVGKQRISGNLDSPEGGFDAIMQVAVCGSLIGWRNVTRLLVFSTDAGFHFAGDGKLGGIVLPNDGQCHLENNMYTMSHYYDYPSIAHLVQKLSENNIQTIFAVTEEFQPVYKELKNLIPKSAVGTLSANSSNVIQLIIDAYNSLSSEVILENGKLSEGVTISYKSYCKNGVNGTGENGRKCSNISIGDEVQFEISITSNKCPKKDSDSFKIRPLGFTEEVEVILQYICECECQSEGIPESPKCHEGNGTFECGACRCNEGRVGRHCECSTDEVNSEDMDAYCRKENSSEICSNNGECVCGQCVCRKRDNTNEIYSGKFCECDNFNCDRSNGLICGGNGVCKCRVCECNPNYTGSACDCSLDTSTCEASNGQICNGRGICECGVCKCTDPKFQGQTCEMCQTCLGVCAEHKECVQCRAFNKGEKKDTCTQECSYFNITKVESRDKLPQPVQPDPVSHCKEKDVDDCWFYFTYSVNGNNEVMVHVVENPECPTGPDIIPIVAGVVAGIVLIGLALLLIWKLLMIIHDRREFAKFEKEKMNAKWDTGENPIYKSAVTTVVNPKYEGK", "test": "inhibition of adhesion of α1K562 cells to immobilised collagen IV"}, "[2]": {"molecular_target": "α6β1 integrin (UniProt P23229)", "sequence (P23229 24-1130, chain 1 of 2)": "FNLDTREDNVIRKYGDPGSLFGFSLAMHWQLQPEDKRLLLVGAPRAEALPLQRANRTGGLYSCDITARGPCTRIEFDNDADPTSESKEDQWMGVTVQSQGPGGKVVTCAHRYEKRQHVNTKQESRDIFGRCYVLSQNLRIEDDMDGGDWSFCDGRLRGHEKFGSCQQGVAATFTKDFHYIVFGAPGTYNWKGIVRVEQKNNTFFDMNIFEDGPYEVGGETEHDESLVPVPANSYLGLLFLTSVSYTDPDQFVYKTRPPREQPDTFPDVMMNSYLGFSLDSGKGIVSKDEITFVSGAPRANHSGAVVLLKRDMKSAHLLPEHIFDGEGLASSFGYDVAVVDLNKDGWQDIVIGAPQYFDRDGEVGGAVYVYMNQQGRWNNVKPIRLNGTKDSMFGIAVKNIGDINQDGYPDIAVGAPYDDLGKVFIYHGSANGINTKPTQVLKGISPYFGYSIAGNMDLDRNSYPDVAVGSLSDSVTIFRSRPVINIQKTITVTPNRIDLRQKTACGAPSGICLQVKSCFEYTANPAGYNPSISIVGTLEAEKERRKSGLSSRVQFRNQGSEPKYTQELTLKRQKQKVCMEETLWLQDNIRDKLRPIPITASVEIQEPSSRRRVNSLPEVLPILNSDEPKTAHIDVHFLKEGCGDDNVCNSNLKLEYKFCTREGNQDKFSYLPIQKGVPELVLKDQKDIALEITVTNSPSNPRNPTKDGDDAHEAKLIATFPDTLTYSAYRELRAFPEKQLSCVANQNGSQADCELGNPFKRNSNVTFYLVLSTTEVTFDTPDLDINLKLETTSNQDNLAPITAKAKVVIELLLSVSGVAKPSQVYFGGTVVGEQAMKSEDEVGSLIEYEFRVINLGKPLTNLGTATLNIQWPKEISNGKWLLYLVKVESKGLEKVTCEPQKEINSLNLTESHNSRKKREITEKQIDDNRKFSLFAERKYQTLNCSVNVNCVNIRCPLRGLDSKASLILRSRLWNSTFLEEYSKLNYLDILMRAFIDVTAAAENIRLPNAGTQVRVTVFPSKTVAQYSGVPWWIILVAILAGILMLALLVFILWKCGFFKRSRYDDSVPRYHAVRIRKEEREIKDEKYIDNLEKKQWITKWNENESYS", "sequence (P05556 21-798, chain 2 of 2, further chain)": "as the sequence (P05556 21-798, chain 2 of 2, further chain) above", "test": "inhibition of adhesion of α6K562 cells to laminin"}},
  "data": [
    {"substance": "Ethylpyridylated obtustatin (EP-obtustatin) (peptide)", "values": [
      {"measurement": "IC50", "setting": "[1]", "result": 30, "unit": "µM"}
    ]},
    {"substance": "obtustatin (peptide)", "values": [
      {"measurement": "IC50", "setting": "[2]", "result": "> 10", "unit": "µM"}
    ]},
    {"substance": "eristostatin (from UniProt P0C6S4 1-49) (peptide)", "values": [
      {"measurement": "IC50", "setting": "[2]", "result": "> 10", "unit": "µM"}
    ]},
    {"substance": "echistatin (from UniProt P17347 131-179) (peptide)", "values": [
      {"measurement": "IC50", "setting": "[2]", "result": "> 10", "unit": "µM"}
    ]},
    {"substance": "viperisrastatin (peptide)", "values": [
      {"measurement": "IC50", "setting": "[2]", "result": "> 10", "unit": "µM"}
    ]}
  ]
}
